Measured values reported in article PMC7102968.

Biological target: TetR-Y42A Y42A;C68S;C88N;C121T;C144S;internal_change (UniProt P04483)
Test: ITC
Settings: ITC: 20 mM potassium phosphate pH 7.4, 50 mM NaCl, 25 C; EMSA: 50 mM Tris-HCl pH 8.0, 10 mM MgCl2, 25 mM NaCl, 25 ug/ml yeast tRNA, room temperature; SEC …

Sequence: GGCCGGAGAAUGUUAUGGCGCGAAAGCGCAGAGAAAACCGGUC [TetR-binding aptamer K1]
- Kd: 13.9 µM
